{"source": "patent EP4813403A1", "about": "(Hangzhou Zhongmeihuadong Pharmaceutical Co., Ltd., dated 2025)", "target": "T1, human GIP receptor (human, UniProt P48546 22-466)", "T1 sequence (looked up)": "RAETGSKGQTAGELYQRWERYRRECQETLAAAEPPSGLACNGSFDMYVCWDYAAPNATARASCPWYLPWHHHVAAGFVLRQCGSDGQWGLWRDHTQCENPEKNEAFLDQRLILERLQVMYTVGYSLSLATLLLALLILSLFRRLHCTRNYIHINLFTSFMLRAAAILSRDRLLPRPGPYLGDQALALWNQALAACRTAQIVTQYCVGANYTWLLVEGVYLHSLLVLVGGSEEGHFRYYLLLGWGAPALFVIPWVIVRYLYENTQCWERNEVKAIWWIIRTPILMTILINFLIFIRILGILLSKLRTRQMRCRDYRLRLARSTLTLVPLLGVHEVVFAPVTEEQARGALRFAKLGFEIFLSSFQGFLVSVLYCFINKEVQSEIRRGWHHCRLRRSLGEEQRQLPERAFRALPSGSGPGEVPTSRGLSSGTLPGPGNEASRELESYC", "assay": "cell-based or functional assay", "data": [{"binder": "YXEGTXTSDYXIXLDKQAQAEFVKWLLKGGPSSGAPPPSK (Aib at 2; αMePhe at 6; Aib at 11; Aib at 13; K at position 24 ε-amino conjugated with ([2-(2-amino-ethoxy)-ethoxy]-acetyl)2-(γ-Glu)1-CO-(CH2)16-CO2H; C-terminal primary amide)", "note": "[P007]", "values": [{"measurement": "EC50 value (ratio: EC50 of endogenous ligand / EC50 of test compound), LANCE Ultra cAMP assay, HEK293/GIPR cells", "result": 1.15, "unit": "ratio"}]}]}
